The data set concerns the molecule itself. The data set is described as follows: size exclusion chromatography on Superdex 200: activity peaks at 42.4 and 87.5 kD, each a single 42.2 kD polypeptide on SDS-PAGE (self-association). Here is the method: Further purification of the enzyme activity was carried out by Ni2+ affinity chromatography (which binds the poly-histidine tag of the recombinant protein) and size exclusion chromatography. Nickel affinity chromatography was carried out by passing an E. coli extract, prepared as described above, through a column containing NTA-agarose (Novagen “His-Bind Resin”). 5 ml of the resin were washed with 30 ml H₂O, charged with 30 ml NiSO₄ washed with 30 ml H₂O and equilibrated with 30 ml 50 mM Na-phosphate pH 8, 300 mM NaCl. The E. coli pellet was suspended in 50 mM Na-phosphate pH 8, 300 mM NaCl and sonicated. The suspension was centrifuged again (9000 g, 20 min). The supernatant was stirred with the Ni-resin on ice for 1 hour. The suspension was transferred into a column. After settling down the column was washed with 250 ml 50 mM Na-phosphate pH 6 containing 300 mM NaCl an d 10% glycerol. Ni-bound protein was eluted with 500 mM imidazole/50 mM Na-phosphate at pH 6 containing 300 mM NaCl. Fractions were collected and assayed for L-galactose dehydrogenase activity. […] This sample was then subjected to size exclusion chromatography on a Superdex 200 column (Amersham-Pharmacia Biotech) using 25 mM tris-HCl buffer pH 7 containing 150 mM NaCl as eluent Fractions (1 ml) were collected and two peaks of activity corresponding to molecular weights of 42.4 and 87.5 kD were detected. […]
In general terms: In gel filtration, larger molecules generally elute earlier.

B1: recombinant Arabidopsis thaliana L-galactose dehydrogenase (expressed in E. coli from pRSETB-LgalDH, with poly-histidine tag) (enzyme)
chain: MTKIELRALGNTGLKVSAVGFGASPLGSVFGPVAEDDAVATVREAFRLGINFFDTSPYYGGTLSEKMLGKGLKALQVPRSDYIVATKCGRYKEGFDFSAERVRKSIDESLERLQLDYVDILHCHDIEFGSLDQIVSETIPALQKLKQEGKTRFIGITGLPLDIFTYVLDRVPPGTVDVILSYCHYGVNDSTLLDLLPYLKSKGVGVISASPLAMGLLTEQGPPEWHPASPELKSASKAAVAHCKSKGKKITKLALQYSLANKEISSVLVGMSSVSQVEENVAAVTELESLGMDQETLSEVEAILEPVKNLTWPSGIHQN
notes: The entry describes one subunit; also called recombinant L-galDH; not shown: poly-histidine tag and vector-encoded residues from pRSETB
For the protein B1, the binding result is listed as “binds”.

The record behind these values is patent US20040053235A1 (published 2004).
